In the supplement of paper PMC10724198:
± gives the standard deviation of the averaged measurements.

These sequences were tested on Saccharomyces cerevisiae (assay: protein stability index of tFT-peptide fusion (C-terminal peptide) (PSI (0-1 scale)); higher = more stable (slower turnover)). Details: genetic background: wild type; temperature: 30 C.
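Also: PSI is a weighted mean of sequencing reads over stability bins, variants kept only with over 10 reads, mCherry proximal and sfGFP distal, peptide attached via GGGS linker.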

Sequence	protein stability index
PSAPPSLPFLPY	0.692 ± 0.032
PPAAAPPSPPPL	0.663 ± 0.0036
RRGPDRCSSLPS	0.6638 ± 0.0044
NRGRIRARVNEA	0.708 ± 0.07
ETRKINELRAKK	0.642 ± 0.087
SPLASAVPFLIV	0.633 ± 0.045
NRLPGNLKKKDN	0.687 ± 0.019
TNVRMGCELEEK	0.716 ± 0.14
RYFISAHPGGIA	0.66 ± 0.02
LLRPYYHILVPL	0.695 ± 0.0024
KRLTSKVKTITG	0.694 ± 0.031
SNVHDEVLWTRA	0.704 ± 0.011
ALLPSAWPFRPP	0.611 ± 0.044
QFLGVGCLRGKR	0.692 ± 0.037
PREYGSYHNYHS	0.592 ± 0.047
WRLGGGMVCVAS	0.566 ± 0.042
TTPPPLPSDPLR	0.622 ± 0.026
QGYWVKAVCASH	0.624 ± 0.023
KHPLAPLRRPVI	0.68 ± 0.0078
SYGPKMAKAVFR	0.706 ± 0.056
LLPLPSPLPACP	0.709 ± 0.02
GGGGPVWREPGT	0.761 ± 0.01
IVSKESNVYIIK	0.662 ± 0.053
VFCPGWRKCNDP	0.661 ± 0.043
KKREEKKEKRKR	0.643 ± 0.054
LPFPSPSPPFPF	0.63 ± 0.094

Sequence	protein stability index
HLLNPVRSPLPA	0.63 ± 0.063
RRRVADIYHGEK	0.713 ± 0.086
YLSFDKSLLSQI	0.662 ± 0.029
QSPTFLTPLALA	0.653 ± 0.039
EKKKKKKEEREK	0.728 ± 0.16
GFGRGRRGLEEN	0.695 ± 0.024
SRLLLPIGISRV	0.543 ± 0.16
RRKGGEERKLKK	0.629 ± 0.037
PPPLPPAPPSPP	0.703 ± 0.19
VGLGEWMGALGV	0.6634 ± 0.006
GAPPPPPARGDL	0.764 ± 0.03
WHSGVICQTVLM	0.651 ± 0.014
RRPTVLRHQSPI	0.737 ± 0.031
RQRSKEPVVQAY	0.654 ± 0.046
KKQKKKTKANKT	0.673 ± 0.041
VSVLCGSRLAFE	0.685 ± 0.04
PPPPPSPDSNLF	0.733 ± 0.067
GGRGGAVEERGG	0.67 ± 0.0078
HRSIDEGCSCCD	0.627 ± 0.093
PLVPRCFVPPVI	0.657 ± 0.023
VWGQGTPFRVVM	0.655 ± 0.091
LDRTIPGPWPLR	0.731 ± 0.042
EVFGNVREAHCV	0.707 ± 0.019
RDRVSASILVLP	0.6892 ± 0.0056
AGALGADRWGLK	0.741 ± 0.0085
FSLSLACPPPHS	0.679 ± 0.19

Sequence	protein stability index
VGIGLTLSLRFS	0.598 ± 0.0066
REENIKSKCRKI	0.742 ± 0.021
PGIAVPTGTSYV	0.617 ± 0.06
SGRGQQEENRRL	0.7 ± 0.011
SGSGVGVVVSEV	0.666 ± 0.049
PAAIARNPLPHR	0.605 ± 0.075
VWGLGGEFWWGV	0.745 ± 0.014
SVVGHGVCGGRG	0.649 ± 0.11
PPPPPVLPPRPP	0.713 ± 0.075
FVGAYGRLCCMS	0.69 ± 0.031
PACSPLLAARVT	0.711 ± 0.061
EEGKSTREKEGG	0.685 ± 0.036
HVVVSPRSNRIL	0.7429 ± 0.0055
ASTRPFYVSSFG	0.741 ± 0.13
PSHLWWDCIRKG	0.625 ± 0.049
CRGGLGASCRGR	0.67 ± 0.008
CLMHTENCIRKA	0.674 ± 0.032
GLPFPPGPIFVS	0.743 ± 0.19
EKQICKVVKIKE	0.777 ± 0.048
PPSRDRATSPSE	0.656 ± 0.023
VTHREFAGSALG	0.698 ± 0.022
PTRTAYHRQIPT	0.773 ± 0.043
DAMSTRSRLLTR	0.7109 ± 0.0051
VDRDWFLKRDSH	0.711 ± 0.031
GAVGLARVSASN	0.653 ± 0.028
RVGGPGNRGGVV	0.696 ± 0.058

Sequence	protein stability index
GGSWGGGGVFVR	0.637 ± 0.083
PFPRPWRPLPTS	0.7 ± 0.044
PLLLLLPPPPSP	0.674 ± 0.033
PPPPPPFLPRLP	0.721 ± 0.14
GFKDRCKDEKSL	0.713 ± 0.11
SPAKRLFRFPSS	0.729 ± 0.05
PPPGLPPPLPPS	0.767 ± 0.015
IAAPANQGHSKP	0.694 ± 0.042
PLSPTSPLPSPA	0.6779 ± 0.0039
HPATPPPLLPPL	0.74479 ± 0.0007
WFLSGGCLFCWR	0.714 ± 0.061
NGSPFFFNRLFT	0.702 ± 0.033
CIRPPPPSPKLM	0.694 ± 0.0096
YRIMRRKEKEER	0.669 ± 0.026
PLPPRPCCLPRP	0.644 ± 0.098
ADCRSRPMREGS	0.665 ± 0.036
RDGHGRHGRGER	0.634 ± 0.024
SFATSELRAGNN	0.701 ± 0.17
PTTAPPIPLPSP	0.72 ± 0.035
PAPCPLFVPSPT	0.655 ± 0.012
PHLEVPARPRGT	0.7148 ± 0.0042
ARPASGCFCLFR	0.655 ± 0.071
TSSTEKTKTKRP	0.809 ± 0.17
PYHLFLSFSLSR	0.725 ± 0.011
QIQRLGGGGHCG	0.762 ± 0.1
GIWVWRGARSVG	0.745 ± 0.054

Sequence	protein stability index
FCSVTLPSRSCV	0.727 ± 0.098
PTQVSGIVPAPR	0.7732 ± 0.0051
ASPSYLFFLLPC	0.5788 ± 0.0018
CRGRSGMCNLET	0.751 ± 0.04
TPTLPPPSPTFH	0.666 ± 0.021
GLVRWRWGDRPS	0.56 ± 0.066
LPFPLGDSRGSC	0.697 ± 0.011
RGALGGGSNRLA	0.788 ± 0.26
KQRKSESGSNTV	0.686 ± 0.057
HFKHLALVQQFP	0.69 ± 0.048
VERRNAVGTDEK	0.611 ± 0.063
FPQSDFFLLILS	0.549 ± 0.013
PPLPHQPSHPIS	0.672 ± 0.053
LEGGVREMRGDG	0.641 ± 0.053
KRSIEIRTKIKL	0.7 ± 0.022
DDIGGRKLCVRG	0.6692 ± 0.0028
VPGIGGGVSVRG	0.612 ± 0.14
QKHAAFLKRSRE	0.68 ± 0.024
SVVSSDVGGGRI	0.5391 ± 0.0047
PPPRPPPLPSPV	0.616 ± 0.0093
KTKTKKKERNRK	0.622 ± 0.088
CGWSQLCRDSES	0.675 ± 0.042
RLIPYPPPLSLP	0.724 ± 0.021
VYTFGASKSMLG	0.629 ± 0.035
KDEWVQSHTNQV	0.671 ± 0.0083
SPPPPPPSPPLH	0.727 ± 0.044

Sequence	protein stability index
VSGICCRGVLLL	0.6268 ± 0.00045
SWPLIFSLPNFI	0.716 ± 0.026
PPPRHSPRPPCI	0.746 ± 0.11
AVARYPPHCSHN	0.768 ± 0.13
YWGGWCGGWEIG	0.73 ± 0.034
CRGWVRVAGLRA	0.604 ± 0.085
FSKTLCGCQITC	0.658 ± 0.037
GLGRWGCLEGLG	0.716 ± 0.071
AKLFSEGLQMHH	0.729 ± 0.049
VRWSRFCLAFPV	0.605 ± 0.04
VVFFSSPHFVRA	0.609 ± 0.05
RWIPRMSFSESQ	0.666 ± 0.0097
SLPFLPPSAPLP	0.76 ± 0.014
FGSCVIFAAHWF	0.6467 ± 0.0025
EEVKRKSGGKSK	0.662 ± 0.027
ARLCLVRTKRHS	0.684 ± 0.044
PSKTQKQYKTVA	0.644 ± 0.094
LRECRSWGGAAG	0.653 ± 0.029
LCLWVWGSVVGG	0.6123 ± 0.0015
GFVCRRFRFGCI	0.634 ± 0.037
PFALADSDGDSK	0.683 ± 0.059
GGFWLGVGSRVG	0.711 ± 0.06
LPVRLPVSGSSS	0.8296 ± 0.0057
LFPCPLRPGCLP	0.699 ± 0.099
SRHPSFPLPMPL	0.746 ± 0.086
LIQHVTKLTPFF	0.694 ± 0.012

Sequence	protein stability index
AAGPGRWRWRGA	0.643 ± 0.0093
CSPLNFGNGLLL	0.584 ± 0.013
RKEVKAWKTTDI	0.694 ± 0.013
YASLPQSRPLSP	0.651 ± 0.013
LSGVRFDSVFEH	0.729 ± 0.016
PPSLPLLPPHPP	0.562 ± 0.011
RVVCGGMGVRRG	0.63 ± 0.077
SCCPPSRTFFPS	0.734 ± 0.0078
ALWALSTHHVRK	0.73866 ± 0.00051
KKKKKKKKKKRK	0.685 ± 0.01
PPRPSLLPRALF	0.642 ± 0.041
QKKNSPIPTNKN	0.695 ± 0.04
SPAPSFLPLTPS	0.656 ± 0.014
LPCCYVWFFLSL	0.499 ± 0.023
STICQRSTSGKG	0.657 ± 0.031
LMRGLYAIPGKF	0.776 ± 0.019
ASMRIVWWFGML	0.495 ± 0.047
DENEKIKKVKVK	0.754 ± 0.02
SITYDRLLPHSS	0.6594 ± 0.0063
RINIDLKKIAKK	0.689 ± 0.05
LGFVGVRSVRSG	0.667 ± 0.059
EIIEINNVKRIK	0.6835 ± 0.0049
SIVRKRPRTTAT	0.682 ± 0.031
PRTSQVNRFFRV	0.721 ± 0.13
RGPPRRLQCLGR	0.7121 ± 0.003
SGKKERQKTEEE	0.645 ± 0.1

Sequence	protein stability index
FFVVGEEFCVSV	0.649 ± 0.054
WLVADWLLALFW	0.627 ± 0.019
GKRLKKTRTKKS	0.704 ± 0.059
KSNTGGGERNKA	0.668 ± 0.018
GWMTGMEERGGG	0.674 ± 0.053
RFETKERGIREK	0.719 ± 0.014
PPNPPPNPPSRY	0.738 ± 0.047
AVWLGGGGRFVG	0.78 ± 0.034
SVSRGSWVWGRL	0.723 ± 0.061
GGSCGFGQGAGG	0.685 ± 0.025
GPVLELWLGRSR	0.775 ± 0.04
PTTTLYNPSPPN	0.742 ± 0.043
ALASPAPLPRRD	0.7561 ± 0.0057
GGCGGVGGACVV	0.738 ± 0.086
LHLDTMPQEKNN	0.668 ± 0.036
GGGGQVWSCRLC	0.678 ± 0.077
VLYCYPYLVLPP	0.678 ± 0.013
LQPLPPYHSIQL	0.703 ± 0.012
WGCAGVGGVGGG	0.6853 ± 0.0065
PPPLRFLSFPPS	0.661 ± 0.057
